Like-named read-outs stand apart in the source and are kept apart here. [ ]: non-standard residue; d: D form. Nle = CCCC[C@H](N)C(=O)O
Key:
[1] = biological target: T1, human melanocortin-1 receptor (hMCR-1) expressed by the human melanoma cell line HBL (human, UniProt Q01726 1-317); assay: cell-based or functional assay
[2] = biological target: T2, recombinant human melanocortin-1 receptor (hMCR-1a) in membrane homogenates of HEK-293 cells (human, UniProt Q01726 1-317); assay: competitive inhibition of [I125]-NDP-alpha-MSH, hMCR-1 HEK-293 membranes
T2 construct: whole, on cells; Used as membrane homogenates, not intact cells; also called hMCR-la; MC-1
T2 sequence (Q01726 whole entry): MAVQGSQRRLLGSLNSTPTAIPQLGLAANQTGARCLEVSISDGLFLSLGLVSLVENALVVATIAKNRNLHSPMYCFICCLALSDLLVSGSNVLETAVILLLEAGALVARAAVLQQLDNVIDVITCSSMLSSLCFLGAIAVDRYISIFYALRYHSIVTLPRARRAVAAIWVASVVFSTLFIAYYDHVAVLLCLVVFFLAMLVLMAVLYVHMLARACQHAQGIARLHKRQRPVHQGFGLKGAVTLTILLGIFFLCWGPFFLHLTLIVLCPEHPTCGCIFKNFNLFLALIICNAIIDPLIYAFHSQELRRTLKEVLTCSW
Protocol: (§1) A competitive inhibition binding assay was performed using membrane homogenates prepared from HEK-293 cells that express recombinant hMCR-la or hMCR-4 (in each instance where the h prefix refers to human), or alternatively membrane homogenates from B16-F10 mouse melanoma cells containing endogenous murine MCR-1. In the examples that follow, all MCR-1 and MCR-4 values are for human recombinant receptors, unless otherwise noted. Assays were performed in 96 well polypropylene round-bottom plates (VWR catalog number 12777-030).
(§2) Membrane homogenates were incubated with 0.1 nM [I¹²⁵]-NDP-α-MSH (Perkin Elmer) and increasing concentrations of test peptides of the present invention in buffer containing 25 mM HEPES buffer (pH 7.5) with 100 mM NaCl, 2 mM CaCl₂, 2 mM MgCl₂, 0.3 mM 1,10-phenanthroline, and 0.2% bovine serum albumin. After incubation for 90 minutes at 37° C., the assay mixture was filtered onto GF/B Unifilter plates (Perkin-Elmer catalog number 6005177) and washed with 3 mL of ice-cold buffer per well. Filters were air dried and 35 μL of scintillation cocktail added to each well. Plates were counted in a Microbeta counter for bound radioactivity. […] Maximal specific binding (100%) was defined as the difference in radioactivity (cpm) bound to cell membranes in the absence and presence of 1 μM NDP-α-MSH. Each assay was conducted in duplicate and the actual mean values are described, with results less than 0% reported as 0%. Ki values for peptides of the present invention were determined using Graph-Pad PRISM® curve-fitting software.

[3] = biological target: T3, recombinant human melanocortin-4 receptor (hMCR-4) in membrane homogenates of HEK-293 cells (human, UniProt P32245 1-332); assay: competitive inhibition of [I125]-NDP-alpha-MSH, hMCR-4 HEK-293 membranes
T3 construct: whole, on cells; Used as membrane homogenates, not intact cells; also called MC-4
T3 sequence (P32245 whole entry): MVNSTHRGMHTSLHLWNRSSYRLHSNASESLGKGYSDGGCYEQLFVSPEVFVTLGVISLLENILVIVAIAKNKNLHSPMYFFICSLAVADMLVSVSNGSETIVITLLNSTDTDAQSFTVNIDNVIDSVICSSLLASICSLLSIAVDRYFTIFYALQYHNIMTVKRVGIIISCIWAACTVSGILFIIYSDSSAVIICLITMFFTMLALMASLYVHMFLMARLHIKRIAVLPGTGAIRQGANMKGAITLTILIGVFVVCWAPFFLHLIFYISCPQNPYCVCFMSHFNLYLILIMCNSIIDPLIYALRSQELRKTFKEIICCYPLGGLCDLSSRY
Protocol: as §1, §2

[4] = biological target: T1, human melanocortin-1 receptor (hMCR-1) …; assay: cell-based or functional assay; remark: listed apart in the source
[5] = biological target: T1, human melanocortin-1 receptor (hMCR-1) …; assay: cell-based or functional assay; remark: listed apart in the source
[6] = biological target: T1, human melanocortin-1 receptor (hMCR-1) …; assay: cell-based or functional assay; remark: listed apart in the source
[7] = biological target: T1, human melanocortin-1 receptor (hMCR-1) …; assay: cell-based or functional assay; remark: listed apart in the source
[8] = biological target: T1, human melanocortin-1 receptor (hMCR-1) …; assay: cell-based or functional assay; remark: listed apart in the source
[9] = biological target: T1, human melanocortin-1 receptor (hMCR-1) …; assay: cell-based or functional assay; remark: listed apart in the source
[10] = biological target: T1, human melanocortin-1 receptor (hMCR-1) …; assay: cell-based or functional assay; remark: listed apart in the source
[11] = biological target: T1, human melanocortin-1 receptor (hMCR-1) …; assay: cell-based or functional assay; remark: listed apart in the source
[12] = biological target: T1, human melanocortin-1 receptor (hMCR-1) …; assay: cell-based or functional assay; remark: listed apart in the source
[13] = biological target: T1, human melanocortin-1 receptor (hMCR-1) …; assay: cell-based or functional assay; remark: listed apart in the source
[14] = biological target: T1, human melanocortin-1 receptor (hMCR-1) …; assay: cell-based or functional assay; remark: listed apart in the source
[15] = biological target: T1, human melanocortin-1 receptor (hMCR-1) …; assay: cell-based or functional assay; remark: listed apart in the source
[16] = biological target: T1, human melanocortin-1 receptor (hMCR-1) …; assay: cell-based or functional assay; remark: listed apart in the source

T1 sequence (Q01726 whole entry): as the sequence (Q01726 whole entry) above

Row | Binder | Ki [2] | Ki [3] | also measured
1 | Ac-[Nle]AH[dF]RAW-OH (SMILES CCCC[C@H](NC(C)=O)C(=O)N[C@@H](C)C(=O)N[C@@H](Cc1c[nH]cn1)C(=O)N[C@H](Cc1ccccc1)C(=O)N[C@@H](CCCNC(=N)N)C(=O)N[C@@H](C)C(=O)N[C@@H](Cc1c[nH]c2ccccc12)C(=O)O, synthetic linear peptide) [Ac-Nle-Ala-His-D-Phe-Arg-Ala-Trp-OH] | 6 nM | 7420 nM | MC-1 EC50 (average; cAMP HBL) [1]: 0.4 nM
2 | Ac-[Nle]AH[dF]R[dP][dW]-NH2 (SMILES CCCC[C@H](NC(C)=O)C(=O)N[C@@H](C)C(=O)N[C@@H](Cc1c[nH]cn1)C(=O)N[C@H](Cc1ccccc1)C(=O)N[C@@H](CCCNC(=N)N)C(=O)N1CCC[C@@H]1C(=O)N[C@H](Cc1c[nH]c2ccccc12)C(N)=O) [Ac-Nle-Ala-His-D-Phe-Arg-D-Pro-D-Trp-NH2] | – | – | MC-1 EC50 (average; cAMP HBL) [4]: 2 nM
3 | Ac-[Nle]AH[dF]RA[dW]-NH2 (SMILES CCCC[C@H](NC(C)=O)C(=O)N[C@@H](C)C(=O)N[C@@H](Cc1c[nH]cn1)C(=O)N[C@H](Cc1ccccc1)C(=O)N[C@@H](CCCNC(=N)N)C(=O)N[C@@H](C)C(=O)N[C@H](Cc1c[nH]c2ccccc12)C(N)=O) [Ac-Nle-Ala-His-D-Phe-Arg-Ala-D-Trp-NH2] | – | – | MC-1 EC50 (average; cAMP HBL) [5]: 0.6 nM
4 | Ac-[Nle]AH[dF]RAW-NH2 (SMILES CCCC[C@H](NC(C)=O)C(=O)N[C@@H](C)C(=O)N[C@@H](Cc1c[nH]cn1)C(=O)N[C@H](Cc1ccccc1)C(=O)N[C@@H](CCCNC(=N)N)C(=O)N[C@@H](C)C(=O)N[C@@H](Cc1c[nH]c2ccccc12)C(N)=O, synthetic linear peptide) [Ac-Nle-Ala-His-D-Phe-Arg-Ala-Trp-NH2] | 0.2 nM | 1740 nM | MC-1 EC50 (average; cAMP HBL) [6]: 0.02 nM
5 | Ac-[Nle]AF[dF]RAW-NH2 (SMILES CCCC[C@H](NC(C)=O)C(=O)N[C@@H](C)C(=O)N[C@@H](Cc1ccccc1)C(=O)N[C@H](Cc1ccccc1)C(=O)N[C@@H](CCCNC(=N)N)C(=O)N[C@@H](C)C(=O)N[C@@H](Cc1c[nH]c2ccccc12)C(N)=O, synthetic linear peptide) [Ac-Nle-Ala-Phe-D-Phe-Arg-Ala-Trp-NH2] | 20 nM | 1620 nM | MC-1 EC50 (average; cAMP HBL) [7]: 6 nM
6 | Ac-[Nle]AR[dF]RAW-NH2 (SMILES CCCC[C@H](NC(C)=O)C(=O)N[C@@H](C)C(=O)N[C@@H](CCCNC(=N)N)C(=O)N[C@H](Cc1ccccc1)C(=O)N[C@@H](CCCNC(=N)N)C(=O)N[C@@H](C)C(=O)N[C@@H](Cc1c[nH]c2ccccc12)C(N)=O, synthetic linear peptide) [Ac-Nle-Ala-Arg-D-Phe-Arg-Ala-Trp-NH2] | 0.45 nM | 1180 nM | MC-1 EC50 (average; cAMP HBL) [8]: 0.04 nM
7 | Ac-[Nle]AH[dF]RPW-NH2 (SMILES CCCC[C@H](NC(C)=O)C(=O)N[C@@H](C)C(=O)N[C@@H](Cc1c[nH]cn1)C(=O)N[C@H](Cc1ccccc1)C(=O)N[C@@H](CCCNC(=N)N)C(=O)N1CCC[C@H]1C(=O)N[C@@H](Cc1c[nH]c2ccccc12)C(N)=O, synthetic linear peptide) [Ac-Nle-Ala-His-D-Phe-Arg-Pro-Trp-NH2] | 185 nM | 20 nM | MC-1 EC50 (average; cAMP HBL) [9]: 9 nM
8 | Ac-[Nle]AA[dF]RAW-NH2 (SMILES CCCC[C@H](NC(C)=O)C(=O)N[C@@H](C)C(=O)N[C@@H](C)C(=O)N[C@H](Cc1ccccc1)C(=O)N[C@@H](CCCNC(=N)N)C(=O)N[C@@H](C)C(=O)N[C@@H](Cc1c[nH]c2ccccc12)C(N)=O, synthetic linear peptide) [Ac-Nle-Ala-Ala-D-Phe-Arg-Ala-Trp-NH2] | 195 nM | 10000 nM | MC-1 EC50 (average; cAMP HBL) [10]: 8 nM
9 | Ac-[Nle]AH[dF]AAW-NH2 (SMILES CCCC[C@H](NC(C)=O)C(=O)N[C@@H](C)C(=O)N[C@@H](Cc1c[nH]cn1)C(=O)N[C@H](Cc1ccccc1)C(=O)N[C@@H](C)C(=O)N[C@@H](C)C(=O)N[C@@H](Cc1c[nH]c2ccccc12)C(N)=O, synthetic linear peptide) [Ac-Nle-Ala-His-D-Phe-Ala-Ala-Trp-NH2] | 43 nM | 10000 nM | MC-1 EC50 (average; cAMP HBL) [11]: 4 nM
10 | Ac-[Nle]AH[dF]RP[dW]-NH2 (SMILES CCCC[C@H](NC(C)=O)C(=O)N[C@@H](C)C(=O)N[C@@H](Cc1c[nH]cn1)C(=O)N[C@H](Cc1ccccc1)C(=O)N[C@@H](CCCNC(=N)N)C(=O)N1CCC[C@H]1C(=O)N[C@H](Cc1c[nH]c2ccccc12)C(N)=O) [Ac-Nle-Ala-His-D-Phe-Arg-Pro-D-Trp-NH2] | – | – | MC-1 EC50 (average; cAMP HBL) [12]: 0.17 nM
11 | Ac-[Nle]HFRAW-NH2 (SMILES CCCC[C@H](NC(C)=O)C(=O)N[C@@H](Cc1c[nH]cn1)C(=O)N[C@@H](Cc1ccccc1)C(=O)N[C@@H](CCCNC(=N)N)C(=O)N[C@@H](C)C(=O)N[C@@H](Cc1c[nH]c2ccccc12)C(N)=O, synthetic linear peptide) [Ac-Nle-His-Phe-Arg-Ala-Trp-NH2] | 5920 nM | 10000 nM | –
12 | Ac-[Nle]AH[dF]R[dP]W-NH2 (SMILES CCCC[C@H](NC(C)=O)C(=O)N[C@@H](C)C(=O)N[C@@H](Cc1c[nH]cn1)C(=O)N[C@H](Cc1ccccc1)C(=O)N[C@@H](CCCNC(=N)N)C(=O)N1CCC[C@@H]1C(=O)N[C@@H](Cc1c[nH]c2ccccc12)C(N)=O) [Ac-Nle-Ala-His-D-Phe-Arg-D-Pro-Trp-NH2] | – | – | MC-1 EC50 (average; cAMP HBL) [13]: 1 nM
13 | Ac-[Nle]AHFRAW-NH2 (SMILES CCCC[C@H](NC(C)=O)C(=O)N[C@@H](C)C(=O)N[C@@H](Cc1c[nH]cn1)C(=O)N[C@@H](Cc1ccccc1)C(=O)N[C@@H](CCCNC(=N)N)C(=O)N[C@@H](C)C(=O)N[C@@H](Cc1c[nH]c2ccccc12)C(N)=O, synthetic linear peptide) [Ac-Nle-Ala-His-Phe-Arg-Ala-Trp-NH2] | 85 nM | 10000 nM | MC-1 EC50 (average; cAMP HBL) [14]: 4 nM
14 | Ac-[Nle]AHFRGW-NH2 (SMILES CCCC[C@H](NC(C)=O)C(=O)N[C@@H](C)C(=O)N[C@@H](Cc1c[nH]cn1)C(=O)N[C@@H](Cc1ccccc1)C(=O)N[C@@H](CCCNC(=N)N)C(=O)NCC(=O)N[C@@H](Cc1c[nH]c2ccccc12)C(N)=O, synthetic linear peptide) [Ac-Nle-Ala-His-Phe-Arg-Gly-Trp-NH2] | 340 nM | 10000 nM | MC-1 EC50 (average; cAMP HBL) [15]: 21 nM
15 | Ac-[Nle][dF]RAW-NH2 (SMILES CCCC[C@H](NC(C)=O)C(=O)N[C@H](Cc1ccccc1)C(=O)N[C@@H](CCCNC(=N)N)C(=O)N[C@@H](C)C(=O)N[C@@H](Cc1c[nH]c2ccccc12)C(N)=O) [Ac-Nle-D-Phe-Arg-Ala-Trp-NH2] | – | – | MC-1 EC50 (average; cAMP HBL) [16]: 402 nM
16 | Ac-[Nle]A[dF]RAW-NH2 (SMILES CCCC[C@H](NC(C)=O)C(=O)N[C@@H](C)C(=O)N[C@H](Cc1ccccc1)C(=O)N[C@@H](CCCNC(=N)N)C(=O)N[C@@H](C)C(=O)N[C@@H](Cc1c[nH]c2ccccc12)C(N)=O, synthetic linear peptide) [Ac-Nle-Ala-D-Phe-Arg-Ala-Trp-NH2] | 6680 nM | 10000 nM | –

From patent US20150119341A1 (PALATIN TECHNOLOGIES, published 2015)
